According to US20240182988:

Target: TtCsm complex (Thermus thermophilus) (UniProt Q53W19+Q53WF6+Q53WF5+Q53WF4+Q53W18)
Experiment: cleavage_in_vitro

“crRNA targeting SARS-CoV-2 N gene (N1) ; SARS-CoV-2 N1 target RNA” was tested, and the activity was greater than 95 % cleaved.
